# Source: article PMC12435574
# B1: Hsp47: S76A (protein)
# parent chain: MRSLLLLSAFCLLEAALAAEVKKPAAAAAPGTAEKLSPKAATLAERSAGLAFSLYQAMAKDQAVENILVSPVVVASSLGLVSLGGKATTASQAKAVLSAEQLRDEEVHAGLGELLRSLSNSTARNVTWKLGSRLYGPSSVSFADDFVRSSKQHYNCEHSKINFRDKRSALQSINEWAAQTTDGKLPEVTKDVERTDGALLVNAMFFKPHWDEKFHHKMVDNRGFMVTRSYTVGVMMMHRTGLYNYYDDEKEKLQIVEMPLAHKLSSLIILMPHHVEPLERLEKLLTKEQLKIWMGKMQKKAVAISLPKGVVEVTHDLQKHLAGLGLTEAIDKNKADLSRMSGKKDLYLASVFHATAFELDTDGNPFDQDIYGREELRSPKLFYADHPFIFLVRDTQSGSLLFIGRLVRPKGDKMRDEL
# B2: Hsp47: OSMI-1 (protein)
# parent chain: B1 parent chain
# What was measured:
# [1] = confocal immunofluorescence (LSCM), HCT116; settings: glycan lost; control: wild type
# [2] = immunofluorescence co-localisation with calnexin and GM130; settings: glycan lost; control: cells without S76A mutation
# [3] = confocal co-localisation with phalloidin, calnexin, GM130; settings: glycan lost; control: untreated
Protein,other: collagen I secretion by cells [1],other: response of collagen I secretion/procollagen transport to kaempferol or OGT knockdown [2],localisation_or_trafficking [3]
B1,decreases,abolishes,–
B2,–,–,changes
